# Data published in patent US20190177415A1 (PIERRE FABRE MEDICAMENT, published 2019).
# T1: C10orf54 (antigen of the KD values in Table 42) (human, UniProt Q9H7M9 33-311, limits assumed)
# T1 sequence: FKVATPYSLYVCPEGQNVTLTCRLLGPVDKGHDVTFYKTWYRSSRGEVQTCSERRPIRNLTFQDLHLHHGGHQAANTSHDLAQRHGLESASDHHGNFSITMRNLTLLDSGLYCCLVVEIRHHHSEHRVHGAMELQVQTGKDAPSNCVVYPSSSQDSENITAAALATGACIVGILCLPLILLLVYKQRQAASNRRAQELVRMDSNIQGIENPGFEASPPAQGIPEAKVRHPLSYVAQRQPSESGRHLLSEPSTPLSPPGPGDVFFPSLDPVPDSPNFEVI
# T2: full length cynomolgus monkey C10orf54 (construct CC4) (cynomolgus monkey, UniProt Q9H7M9 33-311 (human entry))
# T2 construct: also called C10orf54 Construct 4
# T2 chain: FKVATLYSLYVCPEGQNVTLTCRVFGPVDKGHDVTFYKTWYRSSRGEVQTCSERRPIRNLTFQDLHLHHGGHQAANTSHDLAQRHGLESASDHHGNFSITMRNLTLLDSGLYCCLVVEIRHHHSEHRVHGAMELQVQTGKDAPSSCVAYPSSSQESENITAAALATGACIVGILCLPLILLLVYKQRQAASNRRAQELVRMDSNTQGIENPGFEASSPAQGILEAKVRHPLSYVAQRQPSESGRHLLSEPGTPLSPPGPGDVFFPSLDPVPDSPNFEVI
# T3: chimeric C10orf54: human IgV with mouse STALK (construct CC5) (human/mouse chimera)
# T3 construct: also called C10orf54 Construct 5; hsIGVmmSTALK
# T3 chain: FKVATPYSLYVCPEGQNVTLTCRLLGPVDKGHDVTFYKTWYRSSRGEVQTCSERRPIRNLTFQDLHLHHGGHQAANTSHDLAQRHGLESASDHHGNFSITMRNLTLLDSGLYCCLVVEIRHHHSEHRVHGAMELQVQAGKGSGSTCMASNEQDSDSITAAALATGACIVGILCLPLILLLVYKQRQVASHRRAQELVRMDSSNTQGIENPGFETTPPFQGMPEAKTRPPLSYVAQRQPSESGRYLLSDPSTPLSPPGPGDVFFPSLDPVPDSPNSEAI
# T4: chimeric C10orf54: first half of IgV mouse and remainder (including loop) human (construct CC8) (human/mouse chimera, UniProt Q9H7M9 33-311)
# T4 construct: also called C10orf54 Construct 8; mmabChsC10
# T4 chain: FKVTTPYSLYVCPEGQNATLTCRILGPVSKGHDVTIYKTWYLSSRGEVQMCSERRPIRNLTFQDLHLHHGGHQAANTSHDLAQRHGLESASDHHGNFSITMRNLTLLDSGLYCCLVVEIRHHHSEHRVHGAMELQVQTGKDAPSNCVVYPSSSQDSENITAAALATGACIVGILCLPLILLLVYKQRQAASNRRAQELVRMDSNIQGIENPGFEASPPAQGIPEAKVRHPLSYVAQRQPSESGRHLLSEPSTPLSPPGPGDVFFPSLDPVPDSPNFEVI
# T5: chimeric C10orf54: human with mouse loop (construct CC9) (human/mouse chimera, UniProt Q9H7M9 33-311)
# T5 construct: also called C10orf54 Construct 9; hsC10mmLOOP
# T5 chain: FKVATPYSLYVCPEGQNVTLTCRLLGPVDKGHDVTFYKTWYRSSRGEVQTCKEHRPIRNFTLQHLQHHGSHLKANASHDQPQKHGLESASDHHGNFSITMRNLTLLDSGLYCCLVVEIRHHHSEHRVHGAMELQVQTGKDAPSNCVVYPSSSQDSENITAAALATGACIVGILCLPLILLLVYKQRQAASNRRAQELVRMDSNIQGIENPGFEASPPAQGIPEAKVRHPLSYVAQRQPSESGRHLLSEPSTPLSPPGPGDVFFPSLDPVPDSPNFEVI
# T6: chimeric C10orf54: first half of IgV human and remainder (including loop) mouse (construct CC7) (human/mouse chimera, UniProt Q9D659 33-308 (mouse entry))
# T6 construct: also called C10orf54 Construct 7; hsABCmmC10
# T6 chain: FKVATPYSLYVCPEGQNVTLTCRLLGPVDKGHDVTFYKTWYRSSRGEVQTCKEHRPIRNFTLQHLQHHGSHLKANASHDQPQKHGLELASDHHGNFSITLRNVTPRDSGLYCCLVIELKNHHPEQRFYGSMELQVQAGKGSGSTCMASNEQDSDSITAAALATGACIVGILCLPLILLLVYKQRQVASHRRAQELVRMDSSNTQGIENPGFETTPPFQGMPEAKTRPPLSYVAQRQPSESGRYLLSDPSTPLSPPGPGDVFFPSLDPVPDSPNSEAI
# T7: chimeric C10orf54: mouse with human loop (construct CC10) (human/mouse chimera, UniProt Q9D659 33-308 (mouse entry))
# T7 construct: also called C10orf54 Construct 10; mmC10hsLOOP
# T7 chain: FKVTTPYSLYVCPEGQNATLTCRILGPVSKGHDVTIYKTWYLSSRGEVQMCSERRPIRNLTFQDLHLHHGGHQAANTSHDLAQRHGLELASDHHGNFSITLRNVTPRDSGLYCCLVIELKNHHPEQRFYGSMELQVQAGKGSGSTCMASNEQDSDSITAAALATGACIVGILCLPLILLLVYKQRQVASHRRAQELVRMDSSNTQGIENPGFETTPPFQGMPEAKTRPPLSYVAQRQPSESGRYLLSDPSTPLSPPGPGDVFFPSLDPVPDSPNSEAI
# What was measured:
# [1] = molecular target: T1, C10orf54 (antigen of the KD values in …); assay: method and antigen form not stated
# [2] = molecular target: T2, full length cynomolgus monkey C10orf54 …; assay: flow cytometry, transfected 293t cells, 2 ug/ml; stain = MFI >=20-fold over isotype control
# Method: (§1) To investigate epitope diversity of the anti-human C10orf54 antibodies, 293t cells were transfected with 1 of 10 different C10orf54 expression constructs that co-express a fluorescent marker. Two days after transfection, cells were stripped from the tissue culture plate, stained with 2 μg/ml anti-human C10orf54 antibody , washed, stained with anti-mouse IgG-Fc Alexa Fluor 647 polyclonal antibody, washed, and stained with the viability dye 4′,6-Diamidino-2-Phenylindole, Dihydrochloride. Upon acquisition of 10,000 live events on a flow cytometer, live cells marked with the fluorescent marker were analyzed for the degree of staining by the anti-human C10orf54 antibody. When the median fluorescence intensity fold-change relative to an isotype control antibody was at least 20-fold, the antibody was considered to stain the C10orf54 expression construct in question.
# [3] = molecular target: T3, chimeric C10orf54: human IgV with mouse …; assay: as above
# Method: as §1
# [4] = molecular target: T4, chimeric C10orf54: first half of IgV …; assay: as above
# Method: as §1
# [5] = molecular target: T5, chimeric C10orf54: human with mouse …; assay: as above
# Method: as §1
# [6] = molecular target: T1, C10orf54 (antigen of the KD values in …); assay: method and antigen form not stated; footnote: low affinity antibody
# [7] = molecular target: T6, chimeric C10orf54: first half of IgV …; assay: flow cytometry, transfected 293t cells, 2 ug/ml; stain = MFI >=20-fold over isotype control
# Method: as §1
# [8] = molecular target: T7, chimeric C10orf54: mouse with human …; assay: as above
# Method: as §1
binder,measurement,setting,value
"murine monoclonal antibody 141A (antibody, V domains shown, Mouse hybridoma antibody) VH: QVQLQQSGAELMKPGASVKISCKATGYTFSRYWIEWVKQRPGHGLEWIGEILPGSGSTNYNEKFKGKATFTADTSSNTAYMQLSSLTSEDSAVYYCAGEEVYDGYPWFGYWGQGTLVTVSA VL: QIVLSQSPAILSASPGEKVTMTCRASSSLSYMHWYQQKPGSSPKPWIYATSNLASGVPARFSGSGSGTSYSLTISRVEAEDAATYYCQQWSSNPYTFGGGTKLEIK",Kd,[1],1.27 nM
same,binding result,[2],binds
same,binding result,[3],binds
same,binding result,[4],binds
same,binding result,[5],binds
"murine monoclonal antibody 305A (antibody, V domains shown, Mouse hybridoma antibody) VH: DVQLQESGPGLVKPSQSLSLTCSVTGYSITSGYYWNWIRQFPGNKLEWMGYISYDGSNNYNPSLKNRISITRDTSKNQFFLKLNSVTTEDTATYYCARRHDYLSFAYWGQGTLVIVSA VL: not shown",Kd,[6],20.8 nM
same,binding result,[2],binds
same,binding result,[3],binds
same,binding result,[7],binds
same,binding result,[5],binds
"murine monoclonal antibody 175A (antibody, V domains shown, Mouse hybridoma antibody) VH: QVQLQQSGAELMKPGASVKISCKATGYTFSTHWIEWVKQRPGHGLEWIGEILPGSGSTSYNEKFKGKATFTADTSSNTAYMQLSSLTSEDSAVYYCARWLLYYYAMDYWGQGTSVTVSS VL: DVLMTQTPLSLPVSLGDQASISCRSSQSIVHSNGNTYLEWYLQKPGQSPKLLIYKLSNRFSGVPDRFSGSGSGTDFTLKISRVEAEDLGVYYCFQGSHFPYTFGGGTKLEIK",Kd,[6],108 nM
same,binding result,[2],binds
same,binding result,[3],binds
"murine monoclonal antibody 321D (antibody, V domains shown, Mouse hybridoma antibody) VH: QVQLQQSGAELMKPGAAVKISCKATGYTFSSHWIEWVKQRPGHGLEWIGEILPGSGSTDYNEKFKGKATFTADTSSNTAYMQLSSLTSEDSAVYYCARWLLYYYAMDYWGQGTSVTVSS VL: DVLMTQTPLSLPVSLGDQASISCRSSQSIVHSNGNTYLEWYLQKPGQSPKLLIYKVSNRFSGVPDRFSGSGSGTDFTLKITRVEAEDLGVYYCFQGSHVPFTFGGGTKLEIK",Kd,[1],7.26 nM
same,binding result,[2],binds
same,binding result,[3],binds
same,binding result,[4],binds
same,binding result,[8],binds
"murine monoclonal antibody 353A (antibody, V domains shown, Mouse hybridoma antibody) VH: EVKLLESGGGLVQPGGSLKLSCAASGFDFSRYWMNWVRQAPGKGLEWIGEINPDSSTINYTPSLKDKFIISRDNAKNTLYLQMSKVRYEDTALYYCARPGEIYYYGSYWFAYWGQGTLVTVSA VL: DIVLTQSPASLAVSLGQRATISCRASESVEYYGTSLMQWFQQKPGQPPKLLIYAASNVESRVPARFSGSGSGTDFSLNIHPVEEDDIAMYFCQQSRKDPWTFGGGTKLEIK",Kd,[1],2.9 nM
same,binding result,[2],binds
same,binding result,[3],binds
same,binding result,[4],binds
same,binding result,[5],binds
